The values below come from patent publication US9999687B2, “Fluorescent imaging agents” (VisEn Medical, Inc., priority 2008, dated 2018).

[ ]: non-standard residue; d: D form. The star is where a group is joined. Cha = N[C@@H](CC1CCCCC1)C(=O)O; Pent4ynoyl = C#CCCC(=O)*; F5 = not defined here; βAla = NCCC(=O)O

Test [1] deals with inflamed atherosclerotic plaques of high cholesterol fed apoE-/- mice. Put plainly: Cardiovascular disease imaging, fluorescence reflectance. The class given is in vivo. Particulars: 2 nmol, 24 hours post-injection, ex vivo fluorescence reflectance imaging; FIG. 8. As to the method:
High cholesterol fed apoE−/− mice were injected with 2 nmol of imaging agent and in vivo imaging was performed with ex vivo fluorescence reflectance imaging.

For test [2], the target named is T1, Recombinant human Cathepsin B (Homo sapiens, UniProt P07858).
T1 construct: purchased R&D Systems
Nature of the test: Enzyme activation profile of Q65, Cathepsin B. In kind it is biochemical. Conditions: probe 0.5 μM, enzyme 0.05 μM, room temperature, monitored 0-24 hours; FIG. 5. As to the method: The reactions were performed with appropriate buffer at room temperature in a 96-well plate with a final assay volume of 250 μL and probe and enzyme concentrations of 0.5 μM and 0.05 μM, respectively. The buffer for Cathepsin B was 25 mM MES (pH 5.0), 1 mM DTT. Recombinant human Cathepsin B (R&D Systems) was activated in buffer of 25 mM MES (pH 5.0) and 5 mM DTT for 15 minutes at room temperature. Recombinant human Cathepsin L (R&D Systems) was activated in buffer of 50 mM MES (pH 6.0), 5 mM DTT, for 15 minutes on ice. Recombinant mouse Cathepsin Z (R&D Systems) was activated in buffer of 25 mM NaOAc (pH 3.0), 5 mM DTT for 5 minutes at room temperature. The buffer for plasmin (CalBiochem) and trypsin (Sigma) was PBS at pH 7.4.
The plate was incubated at room temperature and the activity monitored at 0, 1, 3, 5, and 24 hours with a Gemini (Molecular Devices) plate reader at excitation wavelength 663 nm, emission 690 nm, and cut off 665 nm. The activity was calculated as the fold of activation by comparing the fluorescence of the enzyme with probe to the fluorescence of probe alone.

For test [3], the system named is activated humanized rabbit Cathepsin K. Nature of the test: Enzyme activation profile of Q92 and Q93, Cathepsin K. The class given is biochemical. Conditions: probe 0.5 μM, enzyme 0.05 μM, room temperature, 0-24 hours; panel also Cathepsin B, L, MMP-2, MMP-9; FIG. 6. As to the method:
The reactions were performed with appropriate buffer at room temperature in a 96-well plate with a final assay volume of 250 μL and probe and enzyme concentrations of 0.5 μM and 0.05 μM respectively. The buffer for activated humanized rabbit Cathepsin K (Merck) was 50 mM MES (pH 5.0), 2.5 mM EDTA, 2.5 mM DTT. The buffer for Cathepsin B was 25 mM MES (pH 5.0), 1 mM DTT. The recombinant human Cathepsin B (R&D Systems) was activated in buffer of 25 mM MES (pH 5.0) and 5 mM DTT for 15 minutes at room temperature. The recombinant human Cathepsin L (R&D Systems) was activated in buffer of 50 mM MES (pH 6.0), 5 mM DTT, for 15 minutes on ice. The buffer for MMP-2 (BIOMOL) and MMP-9 (BIOMOL) was 50 mM Tris (pH 7.5), 10 mM CaCl2, 150 mM NaCl, and 0.05% Brij-35 detergent. The plate was incubated at room temperature and the activity was monitored at 0, 1, 3, 5, and 24 hours with a Gemini (Molecular Devices) plate reader at excitation wavelength 663 nm, emission 690 nm, and cut off 665 nm. The released fluorescent unit was determined by subtracting the fluorescence of the probe alone from the total fluorescence.

The subject of test [4] is ovariectomized mice, tibia region. Nature of the test: Bone imaging, ovariectomy induced osteoporosis. In kind it is in vivo, BALB/c female mice. Particulars: intravenous, 4 and 24 hours post-injection, fluorescence molecular tomography; FIG. 7. On the procedure: BALB/c female mice 7 weeks old (Charles River Laboratory, Wilmington, Mass.) were subjected to ovariectomy or sham surgery to induce osteoporosis. After one to two weeks after surgery, the mice were injected intravenously with imaging agent [F5]-His-Gly-Pro-Asn-Lys(F5)-[PEG20kDa] (SEQ ID NO:427) (Agent Q94). Imaging was conducted at various time points using a Fluorescence Molecular Tomography system (VisEn Medical, Bedford, Mass.).

Test [5] addresses T2, recombinant human Renin (rhRenin) (Homo sapiens, UniProt P00797).
T2 construct: purchased Proteos
T2 sequence (P00797 67-406): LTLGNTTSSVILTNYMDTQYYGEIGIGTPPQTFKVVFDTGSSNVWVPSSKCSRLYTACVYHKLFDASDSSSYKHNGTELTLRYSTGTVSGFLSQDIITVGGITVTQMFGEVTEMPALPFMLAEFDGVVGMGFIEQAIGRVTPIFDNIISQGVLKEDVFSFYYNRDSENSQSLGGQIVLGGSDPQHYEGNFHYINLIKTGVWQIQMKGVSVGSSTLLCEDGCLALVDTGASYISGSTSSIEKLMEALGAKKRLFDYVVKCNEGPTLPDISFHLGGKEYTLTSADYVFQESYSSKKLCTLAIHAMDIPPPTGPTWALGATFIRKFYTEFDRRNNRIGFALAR
Put plainly: Enzyme activation profile of R agents, renin. The class given is biochemical. Particulars: probe 1 μM, enzyme 100 nM, 37 C, 24 hours; FIG. 11. On the procedure:
(§1) The reactions were performed with appropriate buffer in a 96-well plate with a final assay volume of 250 μL and probe and enzyme concentrations of 1 μM and 100 nM, respectively. The reactions were incubated at 37 C for Renin and room temperature for the other proteases. The buffer for human neutrophil Cathepsin G (BIOMOL) was 100 mM Tris (pH 7.5), 1.6 M NaCl. The buffer for Cathepsin D (BIOMOL) was 100 mM Formic Acid (pH 3.3). The buffer for recombinant human neutrophil elastase (Innovative Research) was 100 mM Tris (pH 7.5). The buffer for plasmin (CalBiochem) and trypsin (Sigma) was 1× phosphate buffered saline (PBS) (pH 7.4). The buffer for recombinant human Renin (rhRenin) (Proteos) and recombinant rat Renin (rrRenin) (Proteos) was 50 mM MOPS (pH 7.4), 100 mM NaCl, with freshly prepared 0.002% tween-20. The plate was incubated at the appropriate temperature and the activity was monitored at 24 hours with a Gemini (Molecular Devices) plate reader at excitation wavelength 663 nm, emission 690 nm, and cut off 665 nm. The released fluorescent unit was determined by subtracting the fluorescence of the probe alone from the total fluorescence.

The target of test [6] is T3, human neutrophil Cathepsin G (Homo sapiens, UniProt P08311).
T3 construct: purchased BIOMOL
T3 sequence (P08311 21-244): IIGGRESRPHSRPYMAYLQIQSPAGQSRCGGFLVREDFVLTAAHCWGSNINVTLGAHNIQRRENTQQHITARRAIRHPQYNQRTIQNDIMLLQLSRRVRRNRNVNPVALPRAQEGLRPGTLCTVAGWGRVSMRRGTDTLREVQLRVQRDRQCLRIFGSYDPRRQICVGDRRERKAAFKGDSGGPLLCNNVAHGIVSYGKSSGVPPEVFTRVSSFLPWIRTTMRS
Put plainly: Enzyme activation profile of R agents, Cathepsin G. Conditions: probe 1 μM, enzyme 100 nM, room temperature, 24 hours; FIG. 11. The class given is biochemical. On the procedure: as §1

In test [7] the test system is trypsin. Nature of the test: Enzyme activation profile of R agents, trypsin. The class given is biochemical. Particulars: probe 1 μM, enzyme 100 nM, room temperature, 24 hours; FIG. 11. On the procedure: as §1
Test [8] deals with T4, recombinant human neutrophil elastase (Homo sapiens, UniProt P08246).
T4 construct: purchased Innovative Research
T4 sequence (P08246 30-267): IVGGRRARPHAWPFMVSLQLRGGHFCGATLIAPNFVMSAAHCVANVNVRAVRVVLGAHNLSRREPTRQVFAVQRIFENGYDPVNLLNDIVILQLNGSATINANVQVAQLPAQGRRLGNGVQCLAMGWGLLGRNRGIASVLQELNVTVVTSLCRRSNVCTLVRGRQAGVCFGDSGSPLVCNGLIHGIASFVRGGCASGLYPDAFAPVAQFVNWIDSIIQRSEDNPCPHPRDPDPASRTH
Put plainly: Enzyme activation profile of R agents, neutrophil elastase. In kind it is biochemical. Particulars: probe 1 μM, enzyme 100 nM, room temperature, 24 hours; FIG. 11. As to the method: as §1

Test [9] has as its system kidneys of mice on a low sodium diet. Nature of the test: Renal imaging, low sodium diet versus control diet. The class given is in vivo, C57BL6 mice. Conditions: intravenous 0.2-4 nmol/mouse, imaging at 24 hrs, fluorescence molecular tomography; FIG. 12. As to the method:
C57BL6 mice (Jackson Laboratories) were fed a sodium deficient diet (0.02% Na) and water was replaced with a solution of amiloride (0.1 mg/5 mL or 5 mg/kg/day) for 2 days. Control C57BL6 mice were fed regular chow diet and water. Imaging agents [F5]-Lys-His-Pro-Phe-His-Leu-Val-Ile-His-Lys(F5)-[OH] (SEQ ID NO:401) (R20) and ([F5]-Lys-His-Pro-Phe-His-Leu-Val-Ile-His-Lys(F5)-[NHmPEG20k] (SEQ ID NO:428) (R21) were injected intravenously at different concentrations (0.2, 0.7, 2 and 4 nmol/mouse) following 2 days on a low salt diet. Imaging was conducted at 24 hrs using a Fluorescence Molecular Tomography system (VisEn Medical, Woburn Mass.).

As for “Pentynoyl-Lys(F5)-Gly-Phe-Leu-Gly-βAla-Lys(F5)-PEG20kDa (Pent4ynoyl-K(F5)GFLG[βAla]K(F5)-PEG20kDa; reading uncertain; also: printed as Pentynoyl-Lys(F5)-Gly-Phe-Leu-Gly-βAla-Lys(F5)-PEG20kDa) [Agent Q65]”, the “fluorescence in atherosclerotic plaques” value in [1] was “Fluorescence was detected in plaque-laden vascular sections in the aortic root, the arch and carotid arteries”. Also, the “activation by Cathepsin B (fold of activation)” value in test [2] was “activated by Cathepsin B”.

Turning to “[F5]-His-Gly-Pro-Arg-Lys(F5)-[PEG20kDa] (F5-HGPRK(F5)-PEG20kDa; reading uncertain; also: printed as [F5]-His-Gly-Pro-Arg-Lys(F5)-[PEG20kDa]) [Agent Q92]”, the “activation by Cathepsin K (released fluorescent unit)” value in [3] is listed as “activated primarily by Cathepsin K”.

In the case of “[F5]-His-Gly-Pro-Asn-Lys(F5)-His-Gly-Pro-Asn-βA-[PEG20kDa] (F5-HGPNK(F5)HGPN[βAla]-PEG20kDa; reading uncertain; also: printed as [F5]-His-Gly-Pro-Asn-Lys(F5)-His-Gly-Pro-Asn-βA-[PEG20kDa]) [Agent Q93]”, in test [3], the “activation by Cathepsin K (released fluorescent unit)” value was “activated primarily by Cathepsin K”.

Regarding “[F5]-His-Gly-Pro-Asn-Lys(F5)-[PEG20kDa] (F5-HGPNK(F5)-PEG20kDa; reading uncertain; also: printed as [F5]-His-Gly-Pro-Asn-Lys(F5)-[PEG20kDa]) [Agent Q94]”, in test [4], the “probe signal in tibia region, ovariectomized versus sham mice” value was “increased probe signal detected in the tibia region”.

“[F5]-Lys(Ac)-His-Pro-Phe-His-Leu-Val-Ile-His-Lys(F5)-[OH] (F5-K(Ac)HPFHLVIHK(F5)-OH; reading uncertain; also: printed as [F5]-Lys(Ac)-His-Pro-Phe-His-Leu-Val-Ile-His-Lys(F5)-[OH]) [Agent R23]”: in [5], the “activation by recombinant human renin (released fluorescent unit)” value (shortened to “activation by recombinant human renin”) was “activated primarily by recombinant human rennin”.

Consider “[F5]-Lys-His-Pro-Phe-His-Cha-Val-Ile-His-Lys(F5)-[OH] (F5-KHPFH[Cha]VIHK(F5)-OH; reading uncertain; also: printed as [F5]-Lys-His-Pro-Phe-His-Cha-Val-Ile-His-Lys(F5)-[OH]) [Agent R24]”, for which the “activation by recombinant human renin” value in [5] is “activated primarily by recombinant human rennin”.

Consider “[F5]-Lys-His-Pro-Phe-His-Leu-Val-Ile-His-Lys(F5)-[NHmPEG5k] (F5-KHPFHLVIHK(F5)-NHmPEG5k; reading uncertain; also: printed as [F5]-Lys-His-Pro-Phe-His-Leu-Val-Ile-His-Lys(F5)-[NHmPEG5k]) [Agent R27]”, for which the “activation by human neutrophil cathepsin (released fluorescent unit)” value in test [6] is “activated”. In addition, the “activation by trypsin (released fluorescent unit)” value in [7] is reported as “activated”. Besides, the “activation by recombinant human renin” value in [5] was “activated”. Also, the “activation by human neutrophil elastase (released fluorescent unit)” value in test [8] is “activated”.

As for “[F5]-Lys-His-Pro-Phe-His-Leu-Val-Ile-His-Lys(F5)-[NHmPEG20k] (F5-KHPFHLVIHK(F5)-NHmPEG20k; reading uncertain; also: printed as [F5]-Lys-His-Pro-Phe-His-Leu-Val-Ile-His-Lys(F5)-[NHmPEG20k]) [Agent R21]”, the “activation by human neutrophil cathepsin (released fluorescent unit)” value in test [6] was “activated”. Further, in test [7], the “activation by trypsin (released fluorescent unit)” value was “activated”. For the same substance, the “kidney signal, low sodium diet versus control diet” value in test [9] is listed as “increased signal relative to the kidneys in the mice on the control diet”. The “activation by recombinant human renin” value in test [5] is “activated”. For the same substance, the “activation by human neutrophil elastase (released fluorescent unit)” value in test [8] was “activated”.

On to “[F5]-Lys-His-Pro-Phe-His-Leu-Val-Ile-His-Lys(F5)-[OH] (F5-KHPFHLVIHK(F5)-OH; reading uncertain; also: printed as [F5]-Lys-His-Pro-Phe-His-Leu-Val-Ile-His-Lys(F5)-[OH]) [Agent R20]”, for which, in test [9], the “kidney signal, low sodium diet versus control diet” value is listed as “increased signal relative to the kidneys in the mice on the control diet”. In addition, in [5], the “activation by recombinant human renin” value was “activated primarily by recombinant human rennin”.
